Data reported in patent US10925971B2, “Methods of treating PRLR positive breast cancer” (Regeneron Pharmaceuticals, Inc., priority 2016, dated 2021).

Tested on: T47DvII tumors
Assay: Phospho-histone-H3 (pHH3) IHC in treated tumors, mitotic arrest
Assay type: in vivo, mice
Experimental: In order to validate the activity of DM1 on microtubule activity, the induction of mitotic arrest following treatment of T47DvII tumors with H1H6958N2-DM1 in vivo was assessed by phospho-histone-H3 (pHH3) IHC. Mice were implanted with T47DvII cells and tumors were grown for 15 days where mice were randomized based on tumor volume and dosed intravenously with either vehicle, H1H6958N2-DM1 at 5 or 15 mg/kg or Control ADC at 15 mg/kg (N=4-5). At 24, 48 or 72 hours post-treatment, mice were euthanized and tumors processed as FFPE samples for IHC analysis. Tumor sections were then stained with anti-phospho Histone H3 (pHH3) antibody (clone: Ser10, Cell Signaling Technology #9701) as a measure of mitotic cells. Images were scanned on an Aperio XT Scan scope at 40× (Leica Systems). PHH3 positive nuclear signals were imaged and quantified with the Halo CytoNuclear Count algorithm (Halo, Indica Labs). The percent of positive cells in each tumor was quantified for each group and an average calculated for each treatment condition.

B1: H1H6958N2-DM1: anti-PRLR antibody H1H6958N2 conjugated to the maytansinoid DM1 through an SMCC linker (conjugate)
VH: QVQLVESGGGVVQPGRSLRLSCGASGFTFRNYGMQWVRQGPGKGLEWVTLISFDGNDKYYADSVKGRFTISRDNSKNTLFLQMNSLRTEDTAVYYCARGGDFDYWGQGTLVTVSS
VL: DIQMTQSPSSLSASVGDRVTITCRASQDIRKDLGWYQQKPGKAPKRLIYAASSLHSGVPSRFSGSGSGTEFTLTISSLQPEDFATYYCLQHNSYPMYTFGQGTKLEIK
pHH3 immunoreactivity in tumors (5 mg/kg intravenously, relative to vehicle): significant increase relative to vehicle treated tumors | pHH3 levels in tumors (15 mg/kg, data not shown): further increase in pHH3 levels | time of peak pHH3 levels post treatment (sampled at 24, 48 or 72 hours): 48 hours
